From the MegaScale stability set (Tsuboyama et al. 2023)

B1: EHEE_rd4_0726 (parent)
chain: DIEITTNGEEDAKRVIKELQKRNLEYHIEVHGNQWVIKVR

Variants of: B1
Test: folding stability dG (cDNA display proteolysis); higher = more stable
Settings: PBS, room temperature

Folding stability dG [kcal/mol], by site and new letter:
I37: V 1.5; L 1.21; F 1.95; C 1.49; M 0.481
Q34: L 2.65; A 1.92; T 2.58; H 2.36; I 2.87; P -0.908; V 2.72; K 2.56; D 1.68; E 1.85; M 2.6; F 2.65; R 2.59; G 1.42; Y 2.5; S 2.1; W 2.32; N 2.21
V36: Y 1.7; T 1.77; N 0.793; H 1.47; M 1.37; Q 0.978; K 1.67; R 1.7; E 0.046; C 1.43; W 1.16; A 0.418; F 1.85; L 1.93; S 0.912; I 2.7
R40: H 2.74; V 2.65; C 2.97; I 2.84; G 1.81; E 1.73; Y 2.57; N 1.97; L 2.7; T 2.48; K 2.63; F 2.73; S 2.18; D 1.59; M 2.58; Q 2.11; P 1.89; A 2.12; W 2.3
N33: Y 1.98
V39: W 1.83; M 1.44; A 1.06; K -0.993; F 2.15; R -0.082; G 0.015; Q -0.263; H 0.549; L 1.98; T 1.12; P -0.609; Y 2.08; S 0.617; I 2.58
W35: L 1.53; G -0.933; K 0.49; T 1.24; V 1.67; N -0.421; I 2.06; Y 1.85; Q 0.512; A 0.294; C 1.35; M 1.44; F 1.79; H 0.787; R 0.717; S 0.359
K38: G 0.141; C 2.33; Y 2.68; Q 1.62; T 2.77; I 3.04; W 2.19; E 0.557; S 1.94; F 2.63; V 2.7; M 2.16; H 2.39; N 1.29; A 1.32; L 2.34; D -0.365; R 2.58
